Data taken from the Human Domainome abundance scans (Beltran et al. 2025).

B1: TOX high mobility group box family member 3, residues 256 to 323; numbered along this chain, O15405 (parent)
chain: QKPVSAYALFFRDTQAAIKGQNPNATFGEVSKIVASMWDSLGEEQKQVYKRKTEAAKKEYLKALAAYR

Variants of: B1
Test: abundance fitness (aPCA) (normalised: wild type 0, dead -1); higher = more abundant; growth selection in yeast, the domain comes from the species named
Conditions: Homo sapiens

Abundance fitness of substitutions, site by site:
F10: Q -0.71 | R -0.751 | S -0.267 | T -0.53 | N -0.916 | W -0.957 | Y 0.047 | P -0.572
N24: R -0.063 | Y -0.563 | I -0.879 | E -0.001 | K 0.016 | P -0.848 | W -0.509 | V -0.591 | A -0.183 | F -0.154 | L -0.304 | M -0.095 | C -0.331 | T 0.026 | D -0.055 | S 0.034 | Q -0.353 | H 0.028 | G 0.096
I18: D -1.11 | P -1.03 | Y 0.02 | R -0.707 | T -0.721 | Q -0.833 | G -0.966 | E -0.837 | K -1.18 | S -0.682 | F -0.746 | N -0.72 | L -0.396 | H -0.902 | A -0.607 | C -0.685 | V 0.012 | W -0.692
F11: M -0.101 | V -0.14 | P -1.17 | N -0.19 | A -0.19 | S -0.264 | Y -0.278 | R -0.139 | K -0.205 | D -0.746 | I -0.676 | Q -0.171 | C -0.302 | W -0.134 | L -0.176 | G -0.915
P23: E -0.558 | N -0.251 | I -0.521 | F -1.16 | V -0.677 | M -0.743 | D -0.922 | R -0.454 | A -0.32 | K -0.37 | H -0.615 | W -0.94 | T -0.898 | Y -0.948 | S -0.335 | Q -0.241 | L -0.689 | C -0.627
A16: E 0.158 | C -0.376 | Y -0.564 | H -0.09 | K 0.009 | L -0.178 | W -0.324 | S -0.158 | P 0.067 | T -0.047 | F -0.164 | N 0.078 | R 0.021 | D 0.068 | M -0.401 | G -0.209 | Q -0.133 | I -0.071
A17: F -0.071 | H -0.044 | W -0.234 | E -0.082 | I -0.012 | M -0.169 | Q -0.004 | L -0.071 | V 0.017 | D -0.133 | R 0.083 | C -0.278 | N -0.185 | Y -0.087 | T 0.035 | K 0.196 | P -0.472 | G -0.19
Q15: L -0.13 | A -0.512 | P -1.08 | H -0.084 | G -0.6 | V -0.173 | N -0.212 | M -0.068 | F 0.022 | Y 0.367 | K -0.109 | S -0.538 | R -0.309 | I 0.027 | W -0.194 | C -0.178 | E -0.065
E29: V -0.618 | F -0.431 | K -0.534 | H -0.501 | T -0.495 | M -0.564 | W -0.158 | L -0.832 | N -0.543 | G -0.959 | D -0.174 | P -0.802 | R -0.558 | C -0.643 | A -0.326 | S -0.341 | Y -0.372
Q21: C -0.256 | P -0.722 | V -0.321 | T -0.011 | Y -0.338 | G -0.289 | I -0.346 | H -0.175 | S -0.029 | L -0.219 | M -0.199 | W -0.388 | N 0.048 | A -0.051 | D -0.126 | F -0.444 | K 0.029 | R 0.042
K19: E -0.256 | V -0.122 | S -0.127 | W -0.519 | P -1.03 | N -0.557 | I -0.179 | M 0.027 | D -1.13 | A -0.051 | R -0.102 | Q 0.069 | H -0.197 | L -0.166 | F -0.139 | Y -0.151 | T -0.221
T26: R -0.266 | Y -0.957 | P -0.332 | H -0.161 | D 0.043 | G -0.208 | W -0.811 | C -0.275 | N 0.03 | V -0.845 | I -1.01 | Q -0.217 | S 0.051 | M -0.862 | L -0.544 | A -0.25
R12: E 0.054 | P -1 | C -0.457 | A -0.116 | K 0.022 | D -0.526 | V -0.433 | M -0.052 | I -0.221 | G -0.223 | T -0.146 | H 0.062 | S -0.113 | W -0.587 | Y -0.135 | N 0.168 | Q -0.057
F27: A 0.249 | T 0.098 | H 0.182 | C -0.188 | Y 0.029 | L 0.051 | E 0.162 | N 0.295 | Q 0.093 | D 0.133 | I -0.071 | V 0.004 | W -0.129 | G -0.071 | S 0.154 | K 0.258 | R 0.077
D13: H -0.235 | K -0.646 | V -0.344 | F -0.494 | E 0.11 | I -0.442 | C -0.314 | N -0.462 | G -0.855 | T -0.247 | S -0.516 | A -0.259
A25: P -0.874 | T -0.363 | H -0.299 | Y -0.058 | L -0.155 | S -0.287 | W -0.492 | I -0.121 | R -0.088 | V -0.076 | M -0.212 | C -0.369 | N -0.677 | G -0.696 | Q -0.328
G20: S 0.1 | W -0.455 | K -0.129 | Q 0.224 | H 0.013 | C -0.116 | V 0.039 | M -0.222 | F -0.073 | E 0.085 | P -0.327 | I -0.01 | T 0.038 | L 0.145 | Y -0.361 | D 0.192 | A 0.129
V30: H -0.823 | G -1.04 | C -0.309 | A -0.896 | I 0.014 | E -0.453
T14: P -0.62 | F -0.99 | K 0.066 | N -0.278 | E -0.292 | Q 0.146 | D -0.704 | G -0.709 | R -0.03 | H -0.453 | S 0.087 | M 0.048 | L -0.314 | I -0.326 | A -0.29 | V -0.147 | W -0.364 | C -0.781
G28: P 0.05 | H -0.026 | Y -0.5 | Q -0.159 | V -0.12 | M -0.179 | I -0.076 | R 0.118 | C -0.046 | T -0.028 | D 0.098 | K -0.027 | N 0.117 | W -0.175 | E 0.175 | A -0.096 | S 0.013
N22: Y -0.121 | D -0.41 | M -0.437 | A -0.476 | E -0.443 | P -0.824 | S -0.451 | T -0.293 | H 0.037 | I -0.515 | V -0.149 | R -0.044 | Q -0.182 | F -0.298 | K -0.382
